In the assay the target is T1, Cdc34A^FL, full length Cdc34A (residues 1-236) (human, UniProt P49427 1-236).
T1 sequence: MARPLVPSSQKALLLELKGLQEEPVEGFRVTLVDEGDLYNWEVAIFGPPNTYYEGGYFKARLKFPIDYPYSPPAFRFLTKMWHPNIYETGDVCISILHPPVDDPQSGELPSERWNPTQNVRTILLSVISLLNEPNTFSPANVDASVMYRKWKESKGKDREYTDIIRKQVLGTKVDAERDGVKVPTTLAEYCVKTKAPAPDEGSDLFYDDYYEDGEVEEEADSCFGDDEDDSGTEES
Kind of assay: NMR titration.

B1: Rbx1^12-108-SSQS, Rbx1 fragment that contains the RING domain (residues 12-108) (domain or fragment)
chain: not shown
For the molecule B1, the binding result was “binds”.

Values taken from article PMC3905752 (Nature chemical biology, 2013).
